Reference: the DeepSol protein solubility set

Test: soluble on expression in E. coli; label from the status in PepcDB or PDB records

Soluble on expression in E. coli, soluble:
MSLTTELKTEALPTRTQVDPKHCWDTTLMYANREEWKKDFDLCSSGKDRSPIWPEFSPSHYQIDNPESLLELLSKKFSVERKLDQLYIYAHLIHDQDITNPEGESDYQSIVYLYTLFSQEISWIQPALIALSEEKVAALLSSSVLAPYRFYLEKIFRLSPHTGTANEEKILASSFAALNVSNKAFSSLSDAEIPFGIAKDSNGEEHPLSHALASLYMQSPDQELRRTAYLAQFQRYYDYRNTFANLLNGKVQAHLFEAKARNYPSCLEASLFQHNIPTTVYINLINETKKHTSLINRYFNLKKEALNLKEFHFYDVYAPISQTTSKNYSYEEGVDLVCKSLLPLGTHYVEILRNGLLSNRWVDRYENKHKRSGAYSSGCYDSAPYILLNYTNTLYDVSVIAHEAGHSMHSYFSREAQPYHDAQYPLFLAEIASTFNEMLLMEALSKSDQSKEDKIVIITKTLDTIFATLFRQTFFAAFEYEIHSAAEQGTPLTEEFLSATYGNLQKEFYGGVVTSDSLSALEWARIPHFYYNFYVYQYATGIIAALSFAEKILTQEPGALELYLKFLKSGRSDFPLNILKKSGLDMTTSAPLDKAFAFITKKIDLLSSLLSEDEGHHHHHH
MSLENGYTPKLMYERLSKRLGSLFTFFSEPAFENLLPPPPPEQYRRPLTLVVTLDDFLIHSNWDTQHGWRTGKRPGLDYFLGYLSQYYEIVVFSSNLQMYSDKTVNKLDPYHAYISYALFREACRYKDGKLIKDLSLLNRDLGKTVMIDVDEDSAALQPENSIIVKKWEGQPDEYLISLIPFLEYLATQPVKDVRPILNSYKDKSNEGHHHHHH
GPGSMNLELYVTLADLSRLPRGEPHDVKTLICRADTVRAPRPRELLSGRVFDISGQLLDTEYKGMPGETCVHVFFYDEWASAASFIERDDIVILKGFTVYDTPRVGDHDVEFPFFVTPIPHMAALRALQKGHKDDIMEVTVTADALETPNIRVMPKRLWGSYIANDMQCPRTNND
MSLHLIPRPKSVINHEGEFFIERDTEIILSSELSFEDLNLAIMIQKEIEKVLDFKLNINKLFMDKKYSNSIILREFKFENEEEYKIEIKENQVIIEGFGAGLFYGCQSFRQLVREFGACIPNLTIEDSPYFKYRGFYHDVTRGMVPTLDTLKRLVDKAAFYKINQLQLYIEHTFAFKGMSEVWMDKDPLTAEEILILDKYCKERHVELVPSLSTFGHLYEALRSKSFRELCELEIGDEEYSFVDRMAHHTLDVTNPKSLDFVESMLLEFIPLFSSDKFNICCDETFDLGKGKSREKAEKLGVGKIYTEFLNKVYNIVKRFNKNVMFWGDIIVGYPELLSDIPEDLTCLTWNYHPQANDVATKIIAENNKVQYVCPGVGGWNMMMNLIEGSFSNIRRMVNHGMKYGAIGVLNTNWGDYGNINLLANSMPSMIYGAGISWNPKEEEFNEIFKSISLMEFGDESMKVVSLMDKLSKNQVAGWGELVRWKEKFNEREETKEEIKNIDTLKVFEGYKVASEVRREFIKLLKNTEDKEAIQSFIVSSKGWELIDKFFMVLLEREFNKKSLLDIDKKDLAKDLELWFYDYTSIWRKYNKESELNRIREVIVYMCSYLRGEGHHHHHH
GHMVDLEQEFALGGRVLAFHGPLMYEAKILKIWDPSSKMYTSIPNDKPGGSSQATKEIKPQKLGEDESIPEEIINGKSFFIHYQGWKSSWDEWVGYDRIRAYNEENIAMKKRLANEAGSTGSAPATGGVKKPHRYR
MLPEYGPLAPSEEELHLFGDVDRLKVLEIGCGSGHSLKYLDEKQAGELWGIDLSTKQIEAAQTVLKDSKAPVTLFESPMEVNPGLPTDYFDIVFSIYALGWTTNLTKTLENVYRYLKPGGSFIFSWEHPMYNRVRQHQHGLTVDKSYHEEGAYAHEAWSSPAIMQQYRLSTYLNHLIDHGFKVERVIEDVCLADAQKHTNGWYGYEKAQMIPTTLIIKCLKQLEHHHHHH

Soluble on expression in E. coli, not soluble:
MGSDKIHHHHHHMNTSYLIDFLENKQVSTITKTKHSYLTYHGLEEGYTYVLKKGIVKTSIILKNGREFNLSYINSTDIVSLLRDEISAYTASPLNVRIESDEAIFYRIPRKTFWDYVNHDTHLQDYVRDYYRIKLTQNIKSLQWMTMNGKKGAVCAFIYKLIDIFGRRGATGILIDFPITNEEIANFCGISTRNSVNRIIHDLKEQHVIDIKNQKIFIYDENYLREFTI
APKNGTVQEKKFFSKELNEEMTLLVYLPSNYSPLYKYHVIIAQDGHDYFRLGRIGRQVEELLSKREIDRSIIIGVPYKDVKERRNTYHPEGSKFSAYKRFIAHELVPFADDEYPTYQIGYGRTLIGDSLGATVSLMTALDYPNMFGNIIMQSPYVDKHVLEAVKQSDDIKHLSIYHQIGTKETDVHTTDGNILDFTEPNRELKQLLEKKLSDYDFEPFDGDHKWTYWQPLITPALKKML
MKFLPYIFLLCCGLWSTISFADEDYIEYRGISSNNRVTLDPLRLSNKELRWLASKKNLVIAVHKSQTATLLHTDSQQRVRGINADYLNLLKRALNIKLTLREYADHQKAMDALAEGEVDIVLSHLVTSPPLNNDIAATKPLIITFPALVTTLHDSMRPLTSPKPVNIARVANYPPDEVIHQSFPKATIISFTNLYQALASVSAGHNDYFIGSNIITSSMISRYFTHSLNVVKYYNSPRQYNFFLTRKESVILNEVLNRFVDALTNEVRYEVSQNWLDTGNLAFLNKPLELTEHEKQWIKQHPNLKVLENPYSPPYSMTDENGSVRGVMGDILNIITLQTGLNFSPITVSHNIHAGTQLSPGGWDIIPGAIYSEDRENNVLFAEAFITTPYVFVMQKAPDSEQTLKKGMKVAIPYYYELHSQLKEMYPEVEWIQVDNASAAFHKVKEGELDALVATQLNSRYMIDHYYPNELYHFLIPGVPNASLSFAFPRGEPELKDIINKALNAIPPSEVLRLTEKWIKMPNVTIDTWDLYSEQFYIVTTLSVLLVGSSLLWGFYLLRSVRRRKVIQGDLENQISFRKALSDSLPNPTYVVNWQGNVISHNSAFEHYFTADYYKNAMLPLENSDSPFKDVFSNAHEVTAETKENRTIYTQVFEIDNGIEKRCINHWHTLCNLPASDNAVYICGWQDITETRDLINALEVEKNKAIKATVAKSQFLATMSHEIRTPISSIMGFLELLSGSGLSKEQRVEAISLAYATGQSLLGLIGEILDVDKIESGNYQLQPQWVDIPTLVQNTCHSFGAIAASKSIALSCSSTFPEHYLVKIDPQAFKQVLSNLLSNALKFTTEGAVKITTSLGHIDDNHAVIKMTIMDSGSGLSQEEQQQLFKRYSQTSAGRQQTGSGLGLMICKELIKNMQGDLSLESHPGIGTTFTITIPVEISQQVATVEAKAEQPITLPEKLSILIADDHPTNRLLLKRQLNLLGYDVDEATDGVQALHKVSMQHYDLLITDVNMPNMDGFELTRKLREQNSSLPIWGLTANAQANEREKGLSCGMNLCLFKPLTLDVLKTHLSQLHQVAHIAPQYRHLDIEALKNNTANDLQLMQEILMTFQHETHKDLPAAFQALEAGDNRTFHQCIHRIHGAANILNLQKLINISHQLEITPVSDDSKPEILQLLNSVKEHIAELDQEIAVFCQKND
MGLIIYHKGGRKMKKNILIVGGGPEITICYDLINNSTEYNFFSVSEIPTMYPELFVETIETSFRNFGKTIEQIKELKYSIDAVACWDEALTHIADDISKELGLNPISSLDSQSFRFKDRMRMVCEAGGLKMPKYKIINQFSDTNKIINWKYPLIVKPTSFLASIGVKKVYNFSELQQAVSQMLNVKFPVYIASGVYELGELYNLEPRVLVEEFIDGEEYSLESVVRNGIYTPLGITKKIVDEKLFMDEIGHIFPSNLNKEEKSRVYSWAEKLHQILQLNHITTHTEFRIGRNGDIILIEIGARIGGDCIPNLMKNSFIVKGFDFYNTYLKARLGLQEELNTDTNKFSGIVFFRLNPENYGKIFNGVSYDAPKTSLIFEEKIYKKEGTVLPNPINWSNERVGYVCLENKEYAVLEKEMKEILKSLSIE
